Data: publication PMC6777938, “Evolutionary emergence of Hairless as a novel component of the Notch signaling pathway” (eLife, 2019)

Molecular target: T1, GST-tagged Drosophila Su(H) (Drosophila melanogaster, UniProt P28159 1-594)
T1 construct: Suppressor of Hairless [Su(H)], Drosophila melanogaster; construct GST-Su(H) pGEX-KG of Bailey and Posakony, 1995; also called GST-Su(H); Suppressor of Hairless; source: E. coli, isolated, on Sepharose beads
Experiment: pull-down; in vitro; Sepharose beads bearing GST-Su(H) or only GST, His-tagged Hairless or S-CAP segments in solution; Ptep S-CAP also at 10X input
Settings: both partners purified

T1 sequence (P28159 whole entry): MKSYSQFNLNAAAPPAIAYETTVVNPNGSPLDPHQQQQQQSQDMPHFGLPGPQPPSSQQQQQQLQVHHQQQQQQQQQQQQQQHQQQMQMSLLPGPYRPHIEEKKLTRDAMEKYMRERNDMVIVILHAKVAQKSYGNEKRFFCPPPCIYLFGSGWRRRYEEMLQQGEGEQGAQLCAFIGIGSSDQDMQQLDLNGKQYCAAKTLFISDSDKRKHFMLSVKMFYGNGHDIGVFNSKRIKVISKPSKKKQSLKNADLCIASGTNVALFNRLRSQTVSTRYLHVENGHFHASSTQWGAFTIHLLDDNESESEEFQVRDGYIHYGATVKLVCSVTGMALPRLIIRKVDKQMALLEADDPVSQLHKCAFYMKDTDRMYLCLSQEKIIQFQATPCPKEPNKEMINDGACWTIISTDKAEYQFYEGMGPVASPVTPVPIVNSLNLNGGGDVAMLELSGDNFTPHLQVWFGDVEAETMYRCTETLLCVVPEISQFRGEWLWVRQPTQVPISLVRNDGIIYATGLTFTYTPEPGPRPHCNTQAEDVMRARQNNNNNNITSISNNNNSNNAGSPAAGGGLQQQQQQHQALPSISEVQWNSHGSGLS

Row | Binder | binding result
1 | His-tagged Drosophila melanogaster Hairless residues 192-389, wild type (domain or fragment, 198 residues, fits 192-389 and L235, F237, L245, L247, W258; the printed DNA starts with linker codons R-W-I-R before the insert; also called HIS-H192-389 WT; Dmel Hairless192-389 WT; source: E. coli (codon-optimized for expression in E. coli, pRSET-C), isolated) AVVAAAAGTAKIGKGSNSGGSFDMGRTPISTHGNNSWGGYGGRLQFFKDGKFILELARSKDGDKSGWVSVTRKTFRPPSAATSATVTPTSAVTTAYPKNENSTSLSFSDDNSSIQSSPWQRDQPWKQSRPRRGISKELSLFFHRPRNSTLGRAALRTAARKRRRPHEPLTTSEDQQPIFATAIKAENGDDTLKAEAAE | binds
2 | His-tagged Parasteatoda tepidariorum S-CAP residues 233-432, wild type (domain or fragment, 200 residues, fits 233-432; Su(H)-Co-repressor Adaptor Protein (S-CAP), house spider Parasteatoda tepidariorum, residues 233-432 with the SBD-like motif; same vector and leader as m9; also called HIS-PtepSCAP233-432 WT; Ptep s-CAP233-432 WT; source: E. coli (codon-optimized for expression in E. coli, pRSET-C), isolated) TVNTEDPPKDSINFLDHSRVTDPCSAASETSLPQDVPATSTVGSLKFFLGGRLVLKLNAQQDGGSGNKCQWVQSNDLPKHSNHNKKDKHKKKFAPYSYSSSGTQKPLKKGDDTSAVPDCDPSGIKKPRLKEYETSENSALGLLLCSSSWTPPVADGQESIDVDDTSSKTSEGYISPILSNNSRTSKIDTIKHDFASNPNT | binds
